We go through 40 sequences from the nanobody polyreactivity screen of Harvey et al. (2022).

This data set in a line: yeast display, Sf9 membrane polyspecificity reagent, FACS + sequencing; frameworks hold sequencing errors. An outline of the steps:
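Synthetic nanobody libraries on Saccharomyces cerevisiae BJ5465 were galactose-induced for 36–48 hours, stained 1 hour at 4 °C with 10% biotinylated, detergent-solubilized Sf9 membrane reagent and enriched on streptavidin microbeads. FACS then separated cells into low and high (top ~1%) gates by anti-HA (expression) and streptavidin (reagent binding) fluorescence. Genes were colony-PCR amplified, MiSeq 2 × 250 sequenced and CDR-length filtered. A clone's polyreactivity label is that of its gate of origin.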
As for “QVQLVESGGGLVQGGGSLRLSCAASGITFGDYAMGWYRQAPGKERELVAGINWSGDGTYYADSVKGRFTISRDNAQNTDYLQLNSLKPEDTAVYNCAAETFYDYGGYDYWGQGTQVTVSS”, the “polyreactivity (PSR sort gate)” value was “low polyreactivity”.
On to “QVQLVESGGGLVQAGGSLRLSCAASGNIFVWYDMGWYREAPGKERELVATITSSGGSTYYADSVKGRFTISRDNAKNTVYLQMNSLKPEDTAVYYCNALPYYRDDYWGQGTQVTVSS”, for which the “polyreactivity (PSR sort gate)” value is given as “low polyreactivity”.
Consider “QFQLVESGGGLVQAGGSLRLSCAASGRIFVLNAMGWYRQAPGKERELVAAISGSGSRTYYADSVKGRFTISRDNAKNTVYLQMNSLNPEDTAVYYCNNVSRRSEHTYDYWGQGTQVTVSS”, for which the “polyreactivity (PSR sort gate)” value is “high polyreactivity”.
With “QVQLVESGGGLVQAGGSLRLSCAASGIIFYGYAMGWYRQAPGKERELVAGISSGGSTYYADSVKGRFTISRDNAKNTVYLQMNSLKPVDTAVSYCNADGGYSYESTDHYGYDYWGQGTQVTVSS” the entry was “low polyreactivity”; with “QVQLVESGGWLDQAGGSLRLSCAASGRTLGYYAMGWYRQAPGKERELVASIRYSGGSTYADSVKGRFTISRDNAKNTVYLQMNSLKPEDTAVYYCATGDSFRCYSALSRYDYWGQGTQVTVSS”, “high polyreactivity”; with “QVQLVESGGGLVQAGGSLRLSCAASGRIFNYYAMGWYRQAPGKERELVAAISSGGITNYADSVKGRFTISRDNAKNTVYLQMNSLKPEDTAVYYCAADRSNRPYYRQGYDYWGQGTQVTVSS”, “high polyreactivity”.
Regarding “QVQLVESGGGLVQAGGSLRLSCAASGRILIGYTMGWYRQAPGTERELVARNNYSGGSTYYADSVKGRFTISRDISKNTVYLQMNSLKPEESGDYYCAADVRRGYYTWPPRRVYYWGQGTQVTVSS”, the “polyreactivity (PSR sort gate)” value is “high polyreactivity”.
As for “QVQLVESAGGLVQAGGSLRLSCAASGRIFYYAMGWYRQAPGKEREFVAAISGSGGSTNYADSVKGRFTISRDNAKNTVYLQMNSLKPEDTAVYYCNAESWSWGFIYEYEYWGQGTQVTVSS”, the “polyreactivity (PSR sort gate)” value is “high polyreactivity”.
With “QVQLVESAGGLVQAGGSLRLSCAASGFIFVKYVMGWYRQEPGKERELVATISNGVSTNYADSVKGRFTISRDNAKNTVYLQMNSLKPEDTAVYDCNTGSNAWYFSGDYWGQGTQVTVSS” the entry was “low polyreactivity”.
For “QVQLVESGGGLVQAGGSLRLSCAASGRIFVGNALGWYRKAPGKERELVAAISGSGDSTYYADSVKGRFTISRDNAKNTVYLQMNSLKPEDTAVYYCNVDYDFVIYYYWYYPGYDYWGQGTQVTVSS”, the “polyreactivity (PSR sort gate)” value was “low polyreactivity”.
With “QVQLVESGGGLVQAGGSLRLSCAASGSTFRENDMGWYRQAPGKERELVAALTFSGGSTYADSVKGRFTISRDNAKNTVYLQMNSLKPEDTAVYYCSADTLPAEFDYDYWGQGTQVTVSS” the entry was “low polyreactivity”.
As for “QVQLQESGGGLVQAGGSLRLSCAASGTISSSDAMGWYRQAPGKEREFVATIASGTTTYYADSVKGSFTISRDNAENSVYLQTNSLKPEDTAVYYCAAPTIQIYPFYYWGQGTQVTVSS”, the “polyreactivity (PSR sort gate)” value is given as “high polyreactivity”.
On to “QVQLVESGGGLVQAGGSLCLSCAASGFIFEFYTMGWYRQAPGKERELVAAITNGDSTNYADSVKGRFTISRDNAKNTVYLQMNSLKPEDTAVYYCAADGKGETEYSSHPGWAFDYWGQGTQVTVSS”, for which the “polyreactivity (PSR sort gate)” value was “low polyreactivity”.
As for “QVQLVESGGGLVQAGGSLRLSCAASGRIFGFNAMGWYRQAPGKERELVAGITDSSGRTNYADSVKGRFTISRDNAKNTVYLEMNSLKPEDTAVLYCAKDGLVITAVGSDLWGHGTQVTVSS”, the “polyreactivity (PSR sort gate)” value is “low polyreactivity”.
On to “QVQLVESGGGLVQAGGSLRLSCAASGITVKLYPMGWYRQAPGKETELVATINRGSSTYYADSVKGRFTISRDNAKNTVYLLMNSLKPEDTAVYYCAARLIGAGLLIYDYWGQGTQVTVSS”, for which the “polyreactivity (PSR sort gate)” value was “high polyreactivity”.
Consider “QVQLVESGGGLVQAGGSLRLICAASGFTFHSYAMGWYRQAPGKERELVAAITTDGSTYYADSVKGRFTISRDNAKNTVYLQMTSLKPEDTAVYYCAAGKAYWYARKPYARYYYWGQGTQVTVSS”, for which the “polyreactivity (PSR sort gate)” value is reported as “high polyreactivity”.
With “QVQLVESGGGLVQAGGSLRLSCAASGHIFIRYAMGWYRQAPGKDRELVAASTGSGGSTYYADSVKGRFTISRDYAKNTVYLQMNSLKPEDTAVYYCAARTSKKYVPYDYWGQGTQVTVSS” the entry was “high polyreactivity”; with “LVQLVETGGGLVQAGGSLRLSCAASGSVFYSYAMGWYRQAPGKERELVAAISFSGGSTYYADSVKGRFTISRDNAKNTVYLQMNSLKPEDTAVYYCNTLSADTFDYWGQGTQVTVSS”, “low polyreactivity”; with “QVQLVESGGGLVQAGGSLRLSCAASGSIIGYYAMGWYRQAPGKERELVAAISRTGGSTYYADSVKGRFTISRDNAKNTVFLPMNSLKPEDTAVYYCATRTYARHDYWGQGTQGTVSS”, “high polyreactivity”.
Take “QVQLVESGGGLVQAGGSLRLSCAPSGGTFIYYAMGWYRQAPGKERELVAAISSGGSTYYADSVKGRFTISRDNAKNTVYLQMNSLKPEDTAVYYCAKRRAVQIVDLEYWRQGTQVTVSS”: the “polyreactivity (PSR sort gate)” value was “low polyreactivity”.
“QVQLVESGGGLVQAGGSLRLSCAASGFTFYRYAMGWYRQAPGKERELVATISASGGSTYYADSVKGRFTISRDNAKNTVYLQMNSVKPEDTAVYYFAVRYKSWYGFNYWGQGTQVTVSS”: the “polyreactivity (PSR sort gate)” value was “high polyreactivity”.
On to “QVQLGESGGGLVQAGGSLRLSCAASGRTFGLYAMGWYRQAPGKERELVAAISWGGGRTYYADSVKGRFTISRDNAKNTVYLQMNSLKPEDTAVYYCNAVYSPRYYVGGYDYWGQVTQVTVSS”, for which the “polyreactivity (PSR sort gate)” value is “high polyreactivity”.
For the sequence “QVQLVESRGGLVQAGGSLRLSCPASGFTFVNYAMGWYRQAPGKERELVAAIRRSGSRTYYADSVKGRFTISRDNAKNTVYLQMNSLKPEVTAVYYCNAPVVYFWPLNFDYWGQGTQVTVSS”, the “polyreactivity (PSR sort gate)” value was “low polyreactivity”.
Consider “QVQLVESAGGLVQEGGSLSLSCAASGITLTIYVMGWYRQAPGKEREMVAAISTSGGSTYYADSVKGRFTISRDNAKNTVYLQMNSLKQEDTAVYYCNATPLRRYYGRYLMDYWGQGTQVTVSS”, for which the “polyreactivity (PSR sort gate)” value is on record as “high polyreactivity”.
With “QVQLVESGGGLVQAGGSLRLSCAASGRIFKYYAMGWYRQAPGKERELVAAITRNGGITYYADSVKGRFTISRDNAKNTVYLQMNSLKPEDTAVYYCAAGQRGRYSISSDEYNYWGQGTQVTVSS” the entry was “high polyreactivity”; with “QVQLEESGGGLVQAGGSLRLSCAASGRIFGYYAMGWYRKAPGKERELVAAIRRSGASTYYADSVKGRFTISRDNAENTVYLQMYSLKPVDTAVYYCSQAGYSPVYGYWGQGTQVTVSS”, “high polyreactivity”.
Take “QVQLVESGGGLVQAGGTLRLRCAASGRTFKDYAMGWYRQAPGKERELVAAISWSGGDTYYADSVKGRFTISRDNAKNTVYFQLNSLKPEDTAVYYCNADPSGVFFYSLEFDYWGQGTQVTVSS”: the “polyreactivity (PSR sort gate)” value is “low polyreactivity”.
As to “QVKLVESGGGLVQAGGSLRISSAASGSTFYYYAMGWYRQAPGKESEFVASISSRGTSKYYADSVKGRFTISRDNAKNTVYLQMNSLKPEDTAVYYCAARGWCPTRAYDYWGQGTQVTVSS”, the “polyreactivity (PSR sort gate)” value is recorded as “high polyreactivity”.
As for “QVQLVESGGGLVQAGGSLRLICAASGRTFGTNTMGWYRQAPGKERELVATISSSSGSTYYADSVKGRFTISRDNAKNTVYLQMNSLKPEDSAVYYWAALYRWGYKRYDYWGQGTQVTVSS”, the “polyreactivity (PSR sort gate)” value is reported as “high polyreactivity”.
Regarding “QVQLVESGGGLVQAGGSLRLSCAASGRIFYSNVMGWYRQAPGKERELVAAITSGGSTYYADSVKGRFTISRDNAKNTVYLQMNSLKPEDTAVYYCAARVAFRPRGYIRYYYWGQGTQVTVSS”, the “polyreactivity (PSR sort gate)” value was “high polyreactivity”.
In the case of “QVQLVESGGGLVQAGGSLRLSCAASGNIFRGYTMGWYRQAPGKERELVATITWNGVSTFYADSVKGRFTISRDNAKNTVYLEMNSLKPEDTAVYYCAAYYPSHDYSGFWSDTYEYWGQGTQVTVSS”, the “polyreactivity (PSR sort gate)” value is “low polyreactivity”.
Consider “QVQLEESGGGLVHAGGSLRLSCAASGFTFYSYAMGWYRQAPGKERELVAAITQSGGSTYYADSVKGRFTISRDNAKNTVYFQMNSLKPEDTAVYYCAAGRRSSWRYYLWYDYWGQGTQVTVSS”, for which the “polyreactivity (PSR sort gate)” value was “low polyreactivity”.
On to “QVQLVESGGGLVHAGGSLRLSCAASGSIFYSNVMGWYRQAPGKERELVAAITRGGGTNYADSVKGRFTISRDNAKNTVYLQMNSLKPEDTAVYYCNRDPQKYRWIPRYDYWGQGTQVTVSS”, for which the “polyreactivity (PSR sort gate)” value was “low polyreactivity”.
On to “QVQLVESGGGLVQAGGSLRLSCAASGSTFWYNMGWYRQAPGKERELVAAISYSSGRTYYADSVKGRFTISRDNAKNTVYLQMNSLKPEDTAVYYCAARYPRTRRYGYWGQGTQVTVSS”, for which the “polyreactivity (PSR sort gate)” value is “high polyreactivity”.
“QVQLVESAAGLVQAGGSLRLSCPASGITFYYYAKGWYRQEPGKESELVAAISGGGDSTYYADSVKGRFTISRDNAKNTVYLQMNSLKPEDTAVYYCAAGQDYWVPDDSLFYYWGQGTQVTVSS”: the “polyreactivity (PSR sort gate)” value was “low polyreactivity”.
In the case of “QVQLVESGGGLVQAGGSLRLSCAASGITFPRYAMGWYRLAPGKERELVATITRSGGGTYYADSVKGRFTISRDNAKNTVYLQMKSLKPEDTAVYYCAAGALQRGVYGYGYWGQGTEVTVSS”, the “polyreactivity (PSR sort gate)” value is listed as “high polyreactivity”.
For “QVQLVESGGGLVQAGGSLRLSCAASGSIFVLNAMGWYRQAPGKERELVAAITNVGSTYYADSVKGRFTISRDNAKNTVYLQMNSLKPEDTAVYYCVAKGHLYSGGYEYYYWGQGTQVTVSS”, the “polyreactivity (PSR sort gate)” value is recorded as “low polyreactivity”.
To “QVQLVESGGGLVQAGGSLRLSCAASGRTFGFNAKGRYRQAPGTERELVAAISGSGGRPYYADSVKWRFTISRDNAKNTDYLQMNSLKPEDSAVYYCAAGARRGGSGYWGQGTQVTVSS” belongs “high polyreactivity”.
For the sequence “QVQLVESGGGLVQAGGTLRLSCAASGSTFKYYAMGWYRQAPGKEREFVASINWSGVSTYYADSVKGRFTISRDNAKNTVYLQMNSLKPEDTAVYYCAARVRGKYDYWGQGTQVTVSS”, the “polyreactivity (PSR sort gate)” value was “high polyreactivity”.
With “QVQLVESGGGLVQAGGSLSLSCAASGRTLIRNAMGWYRQAPGKGRELVAAINSGGITNYADSVKGRFTISRDNAKNTVYLQMNSLKPEDTAVYYCNDRQVLYGLYLRAYPYEYWGQGTQVTVSS”, the “polyreactivity (PSR sort gate)” value is reported as “low polyreactivity”.
